The numbers were not newly measured in publication PMC5457079, which cites them from elsewhere.

For this series, the target named is insulin (Homo sapiens) (UniProt P01308).

Regarding insulin (from UniProt P01308), the Kd (usually the free concentration of one partner at which half of the binding sites on the other are occupied at equilibrium, for simple one-to-one binding) was 10 µM.
